PMC3448610, “Characterization of Molecular Determinants of the Conformational Stability of Macrophage Migration Inhibitory Factor: Leucine 46 Hydrophobic Pocket” (PLoS ONE, 2012)
Residue numbers refer to the chain shown, from its start. In names and notes the source's numbering stands.

B1: L46A human Macrophage Migration Inhibitory Factor (natural protein, UniProt P14174 1-115, looked up)
chain: MPMFIVNTNVPRASVPDGFLSELTQQLAQATGKPPQYIAVHVVPDQAMAFGGSSEPCALCSLHSIGKIGGAQNRSYSKLLCGLLAERLRISPDRVYINYYDMNAANVGWNNSTFA
notes: initiator methionine cleaved, measured mass 12303 g/mol; numbers count on: the mature protein starting at Pro-1 (without the initiator methionine); No tag is named; also called L46A huMIF; L46A MIF; source: more than 95% pure
B2: L46G human Macrophage Migration Inhibitory Factor (natural protein, UniProt P14174 1-115, looked up)
chain: B1 chain with A47G
notes: initiator methionine cleaved, measured mass 12289 g/mol; numbers count on: the mature protein starting at Pro-1 (without the initiator methionine); No tag is named; also called L46G huMIF; L46G MIF; source: more than 95% pure
B3: L46F human Macrophage Migration Inhibitory Factor (natural protein, UniProt P14174 1-115, looked up)
chain: B1 chain with A47F
notes: initiator methionine cleaved, measured mass 12379 g/mol; numbers count on: the mature protein starting at Pro-1 (without the initiator methionine); No tag is named; also called L46F huMIF; L46F MIF; source: more than 95% pure

Molecular target: the molecule itself
Test: AUC; sedimentation velocity, 50,000 rpm, 20°C, PBS 1X pH 7.4, protein 5-50 µM (15 µM in Figure 3); c(s) analysis with SEDFIT; oligomeric state of the protein with itself

Protein	stoichiometry N
B1	3
B2	3
B3	3
